Measured values as given in US20130122008A1, “Anti-IL 1- ß Antibody Combination Therapy” (NOVARTIS AG, priority 2009, published 2013).
Entries after “also recorded” stand apart in the source; their conditions may differ.

Tests used:
Assay type in all cases: in vivo, human
[1] = tested on: patients with type 2 diabetes mellitus (T2DM); experiment: C-peptide (OGTT) in clinical study of ACZ885 in T2DM patients on metformin; conditions: dose escalation, Week 4 post-dose, versus placebo
Text: In the beta cells of the pancreas, the proinsulin molecule is cleaved to form insulin and C-Peptide. C-Peptide, a polypeptide consisting of 31 amino acids, is stored in the secretory granules of the beta cells and released into circulation in equimolar amounts with insulin. The determination of C-Peptide provides an assessment of endogenous insulin secretory reserves in patients with diabetes mellitus and is considered a more reliable indicator of insulin secretion than insulin itself. The ADVIA Centaur C-Peptide assay is a two-site sandwich immunoassay using direct chemiluminescent technology, which uses constant amounts of two antibodies. The first antibody, in the Lite Reagent, is a monoclonal mouse anti-C-Peptide antibody labeled with acridinium ester. The second antibody, in the Solid Phase, is a monoclonal mouse anti-C-Peptide antibody. Streptavidin in the Solid phase is covalently coupled. A direct relationship exists between the amount of C-Peptide present in the patient sample and the amount of relative light units (RLUs) detected by the system. The method has an inter-assay precision of 1.69-1.81% CV, and an intra-assay precision of 3.7-4.1% (determined by assaying 20 replicate assays of a sample then evaluating the coefficient of variation). Accuracy is evaluated by comparison with College of American Pathologists (CAP) Ligand. […]

[2] = tested on: patients with type 2 diabetes mellitus (T2DM); experiment: Hemoglobin A1c in clinical dose escalation study of ACZ885 i.v. in T2DM patients on metformin
Protocol: The hemoglobin A1c assay is performed at Covance Central Laboratory Services (CLS) on the FDA-approved Bio-Rad Variant™ analyzer. This analyzer utilizes the principles of ion-exchange high performance liquid chromatography (HPLC) and microcomputer technology. Detection is performed at two wavelengths, 415 nm and 690 nm, to insure a stable baseline. A chromatogram of the changes in the absorbance is plotted versus the retention time. Each chromatogram printout is accompanied by a report identifying each peak detected, plus the relative percent and retention times of each peak. The method has an inter-assay precision of 1.7-2.1% CV, and an intra-assay precision of 0.9-1.1% (determined by assaying 15 replicate assays of a sample then evaluating the coefficient of variation). A multi center, randomized, double blind, placebo-controlled, dose escalation study of the safety, tolerability, pharmacokinetics and pharmacodynamics of ACZ885 administered intravenously to patients with type 2 diabetes mellitus. The aim of the study is to compare the pharmacokinetic and pharmacodynamic effects of five doses (i.v. administration) of ACZ885 with placebo in patients with type 2 diabetes mellitus (T2DM). […] OGTT was administered at Baseline, 4 and 12 wk post-dose. […]

[3] = tested on: patients with type 2 diabetes mellitus (T2DM); experiment: Plasma glucose (fasting and OGTT) in clinical study of ACZ885 in T2DM patients on metformin
Protocol: The glucose assay is a hexokinase enzymatic method. Hexokinase catalyzes the phosphorylation of glucose with adenosine triphosphate. The glucose-6-phosphate is then oxidized to 6-phosphogluconate in the presence of NAD by the enzyme glucose-6-phosphate dehydrogenase. The amount of NADPH formed during the reaction is equivalent to the amount of D-glucose in the specimen and is measured photometrically by the increase in absorbance. The method has an inter-assay precision of 5.1-6.2% CV, and an intra-assay precision of 1.7-2.5% (determined by assaying 50 replicate assays of a sample then evaluating the coefficient of variation). The method is specific for glucose; no other carbohydrate is oxidized. A multi center, randomized, double blind, placebo-controlled, dose escalation study of the safety, tolerability, pharmacokinetics and pharmacodynamics of ACZ885 administered intravenously to patients with type 2 diabetes mellitus. The aim of the study is to compare the pharmacokinetic and pharmacodynamic effects of five doses (i.v. administration) of ACZ885 with placebo in patients with type 2 diabetes mellitus (T2DM). […] OGTT was administered at Baseline, 4 and 12 wk post-dose. The subsequent cohorts were included in the evaluation of pharmacodynamic, pharmacokinetis, pharmacogenomics and pharmacogenetics. • Cohort 2 (n=90; 1:1=ACZ885:Plb): received a single dose of ACZ885 (10 mg/kg) or placebo. • Cohort 3 (n=96) received a single dose of ACZ885 0.1, 0.3, 1.5 mg/kg or placebo (1:1:1:1). • Cohort 4 (n=30; 2:1=ACZ885:P1b) received a single dose of ACZ885 (0.03 mg/kg) or placebo. The study was designed to follow the patients for 24 weeks (168 days) after the single intravenous (i.v.) administration. An analysis of covariance (ANCOVA) with treatment as the classification variable and baseline as the covariate will be used for the comparison of treatments with respect to these parameters.

B1: ACZ885: anti-IL1β antibody, also referred to as Canakinumab; variable domains shown in SEQ ID NO:1 (VH) and SEQ ID NO:2 (VL) (antibody, V domains shown)
VH: QVQLVESGGGVVQPGRSLRLSCAASGFTFSVYGMNWVRQAPGKGLEWVAIIWYDGDNQYYADSVKGRFTISRDNSKNTLYLQMNGLRAEDTAVYYCARDLRTGPFDYWGQGTLVTVSS
VL: EIVLTQSPDFQSVTPKEKVTITCRASQSIGSSLHWYQQKPDQSPKLLIKYASQSFSGVPSRFSGSGSGTDFTLTINSLEAEDAAAYYCHQSSSLPFTFGPGTKVDIK
modifications: homo sapiens
OGTT C-peptide AUC0-4 h [1]: Positive trends consistent with dose escalation; also recorded: positive trend at Week 4 post-dose, albeit not statistically significant
hemoglobin A1c (HbA1c) ([2]; single i.v. dose 1.5 mg/kg, Week 4, T2DM subjects on stable metformin, versus placebo, 1.5 mg/kg): statistically significant decreased; also recorded: Significant reduction
reduction in HbA1c ([2]; single i.v. dose 10 mg/kg, Week 4 to Week 12, p=0.032): −0.32%
OGTT glucose AUC0-4 h / post-prandial glucose ([3]; dose escalation, Week 4 post-dose, versus placebo): Positive trends consistent with dose escalation; also recorded: positive trend at Week 4 post-dose, albeit not statistically significant
postprandial glucose (OGTT) compared to placebo ([3]; single dose 10 mg/kg, 4 weeks): significant reduction
peak plasma glucose (PPG) following OGTT ([3]; single i.v. dose 10 mg/kg, Week 4, versus placebo in change from baseline, 10 mg/kg): statistically significant; also recorded: reduction
fasting plasma glucose (FPG) ([3]; single i.v. dose 10 mg/kg, Week 4 post-dose, 10 mg/kg): decrease
peak plasma glucose (PPG) following OGTT ([3]; single i.v. dose 10 mg/kg, Week 12): maintained
plasma AUC glucose following OGTT ([3]; single i.v. dose 10 mg/kg, four weeks after treatment, on stable metformin): statistically significant decreased
fasting plasma glucose (FPG), course of effect ([3]; single i.v. dose 10 mg/kg, from Week 4 to Week 12): attenuated
